By stoichiometry N is commonly meant the number of molecules, sites or subunits per partner or assembly.

This test addresses mink ryanodine receptor type 3 (RyR3) (mink). Put plainly: cryo-EM structure.

“mink ryanodine receptor type 3 (RyR3) (natural protein)”: the stoichiometry N came out at 4.

The values are drawn from publication PMC11452665.
